Assay results as given in patent US7211395.

Target: human serum albumin (HSA) (human), P02768
Assay: FP
Details: modification not given

| Binder | Kd |
| --- | --- |
| AEGTGDFWFCDRIAWYAQHLCEFLDPEGGGK [DX-236 Ala mutant 120] | 1300 nM |
| AEGTGDFWFCDRIAWAPQHLCEFLDPEGGGK [DX-236 Ala mutant 121] | 1400 nM |
| AEGTGDFWFCDAIAWYPQHLCEFLDPEGGGK [DX-236 Ala mutant 124] | 1500 nM |
| AEGTGAFWFCDRIAWYPQHLCEFLDPEGGGK [DX-236 Ala mutant 129] | 5100 nM |
| AEGTGDFWFCDRIAWYPQHACEFLDPEGGGK [DX-236 Ala mutant 117] | 2000 nM |
| AEGTGDFWFCDRIAAYPQHLCEFLDPEGGGK [DX-236 Ala mutant 122] | 1400 nM |
| AEGTGDFWFCDRIAWYPAHLCEFLDPEGGGK [DX-236 Ala mutant 119] | 2200 nM |
| AEGTGDFWFCARIAWYPQHLCEFLDPEGGGK [DX-236 Ala mutant 125] | 5000 nM |
| AEGTGDFAFCDRIAWYPQHLCEFLDPEGGGK [DX-236 Ala mutant 127] | 2300 nM |
| AEGTGDAWFCDRIAWYPQHLCEFLDPEGGGK [DX-236 Ala mutant 128] | 5100 nM |
